Experimental data from the DeepSol protein solubility set.

Test: soluble on expression in E. coli; label from the status in PepcDB or PDB records

| Sequence | soluble on expression in E. coli |
| --- | --- |
| TLAGRIVLVKIEPLSFSEFCKLKGHEVPYEKVAYARDILSPMLMEYIEKGGFPELVWENDPYKIRSYVRSIVIDRIVTRDIPQEFGIR | not soluble |
| MSLTISTQCSKCEKIYDDNKRKICSGKCGHSICESCFDRKSSDICSICNQIDSFGVKCINRSAMEMVEMKKNAFSFSDIWIFKFDPKEHFNGPCSKCNDYSTMLRVCTNSAVQAGLLVKTGENSFDLTPHTTDELLETIILRIKSIGICADCVINNGLKEDVVMMKNIKRLYDIAKALNYLSMFSFSMKQIEREIEEFKNKKNQLRFYNMYYHFVKETYPEIMKWLKNDLVRISAPPCWQVLLKIVSIMTQAAQSLFLKSAERELQISKEKLRDSKGNSEWQKTVDKLENFRDFLEINHVDAEIQPIDMWNFFVLCTTEELDKVTAIINRNLKIQGKSSRETLKEVYYLTRDVRKTLPFQIPERFAGFIDRFIRVLVGENLDEEQALEIQSTT | not soluble |
| MERIAMNPLMQQAIQFANDHETAWDRSVRGNFGVHLDDPPPWNRLLGPVHDRGPVSGVVVVDGQTLASWGEPERADLTFSVAKLYLSILAGVAHDRGLLPDVDEPVGRRVPGIGFDAGRNARITWRHLLQQTSEWEGERFGVPDQADRYRAVAFGIPPDGRKGDARPLQEPGTYWEYNDVRINQLSYALLHLFRRPLPEVFREAVTRPLGASEDWQWVGYDNAWVDIDGVRMPSVPGGTHWGGGMSISARDQALIGRMLLDEGRAADGRQVLSPAWIQAMRTPCDIAPYYGYLIWLNHERKVFPSVPASSFFGIGAGSSFTWVEPERRMVVIVRWLDAAYADALFGRILAAVDAHRAGLEHHHHHH | not soluble |
| MIGAQVDMHFTKGYPSVDLSDPWNKNVLLEVVRMAIPLMKHPNYYRINGKPAIFIWNEAIFYNRAEAYREIKEMVKRDLGVEPYIIADVLPRIMADRKVIPGTPEGEWYIRNLLLRKNDGGDKFIDAYTSWIGFYSVQGETALTPREIEMYSKLYREHVEAWSSYTNGRNKCFIPTVSPGFDRTFDKSFNQQFPIPRDPKRFAEMLKIALDSLGNCKEIRIDTWNDFYEGTFIEPSVSDGFTYLEVLEEFIKELKENLEHHHHHH | not soluble |
| SLARKRRSTQRFSTTRKLKKERKIGTGKKEAEPLLPDLAEINAPDLMPTLVLNFDNVLASIAYDPVKGYIVRKRPGVDAFLSTLANFYELVLWSDHPFPFIEDLLRARLEWPISFTLYQENMDRRGSSRYRKIVQKGPFFKATRGVACSSGLSETAETLEEIFDNLERLGRRMDRVLYIDIDGSVLPSTQMRNFIKVTPFHGEAQEMLEDHALPELTDLLIGAAVSAGDVREMLLRYGGGADGNVGKR | soluble |
| MAHHHHHHMSSGRRDIIFFGSIAVSILGHEVHDEAVAPQLERQNARIKLHTTARAPYAKTEEVFGLDATSPLYEIHSADFKASPTSSLTPQRGAPHPRHHRQKAAFLPVMLKLAQDAAVEEVPSIEDQDGALLQLDSPTNNVDPAPSYASASVRIEVDMSRSGGDATPVGTKEVFLPSLNYLAIRDMCTVVRIPVWSNTIQRSETGDVDVAELDRRSPQPQRAGDDNSSSSSGVLGGVRDRNSRGDAVSGVALSVYAMVRVISLAEKVRLALEADDAVRCLLGLPDPVPGVSLALTQRGDAPYGAMPLTELYKHHRQFFGYYSNTIIKHSNVVTQRLAEAPRQREADASFPHRWNTLTVVDLRPALLGEDAFAPLLVTLAYCANLRALYADGNHLGDLTCARLSALFRRHRYLARVSLSKNTIHEAGGEHLLRLVRNNLRITSMPCQGNYFSDALRSRIEEVARRNASVIAQDPLNIFSASYDYLTDLSSLPNSLQQQGLRTWAMLSAAPVGDVDVMVRNFTTSTQRTLGDSPVVAMQRAKTALRARESFSLIPPAALAPFLNEIMRTVSVGVSRVLPDPLVRSLFSDMETVVAREQEQVEAQRRDELAGGSRDASLLPPEVCDAVGGAYTPPVDSETMYARSFVRIVVAALRGVALGTPWAEIAKVLEGIGRVHRDLGVMPEDYWLAVHIFMTSLRISCGAECYDADSASSFLGLLALAVRTAVGTDTVLQ | not soluble |
| MGSDKIHHHHHHMAVQAKQCKAVLLCGYYGEHNLGDDALLQVLLEELPSSLQPWITANDSNVIKGLAPKAQVINRRSLLESIRALFQVQGLILGGGSLLQDSTSFKSLIYYLILIVIAQQRGVPVLLWGQGLGPFRYRLSRWMVRRVLRRVQAISWRDPDSFQLAEQWCLPSPMLMAPDPVWQLPSRSWEGGQAVVLCWRSTSMLDRFGWQHLLQALEMILTDIDAPVHWLAFHQRQDEELFRKLDRQGLISSSLRSRSHSFAFDSLTEVMNQFTMARLVLPMRLHALILAQLAGSPTVALSYDPKVSSAALMANVPFTDLQSLPDIRLLAGLWGQVLDVPPDLGKIEAIRKHASQHSKIIDKVFN | not soluble |
| MQDQVIICDLDNTIFDTSSIDPELFASLLHKATEYLSGSFTAEIILSIIQDIVSNPFDRVCEKYGLPKSMILPVLDELNGISLEHSAMVPYEDYAAFRAIPAYKILVTTGFKRLQEEKLRKLQIRQDFDRIIINDPVYANSSKLDIFRELSRELDLKDRKTYVVGDDPASEIKAGRELGFTTVLMVRKEYLSNSYTDYIISSFEGLRDLLRDNMENDYALRK | soluble |
| MEIRWMKSFVAVAEELNYGRAAEVLHIAQPAVSQQVQQLEKRLGVKLFDRTTRSVRLTAAGERFLQPCKDALAGIVRAVDAAVIADPAVEGRVRVGFSGAYGQTELSSLARSVRRRYPLIDLVLEGATVSGQILDEIWEGQLDLGIVSDAVSHPHVLTRQISVEYLSALLPSDHPLAERKSIDLAELRDETFVANPAATGSTLRRDLLAACRDAGFTPNIVQETTDGIVLTALVAAGVGVALVPGDVQTYPNRVVLVPLDAGRYEVRAALAWSDRPVSPVVQTVLDLAAEVLPSPDALAVEQ | not soluble |
| MVQFLAQMPTGTSSFQAAITENEEGRLFEKYGQLLQESPPASNRPSLGIEGASGLPRPGMCPGRDCSPGSCLAALCPRPPPLYLMVPGKASGMAEAELRATLPCSCGSIPLSTPKR | soluble |
| SNAMLFCDDSKKYLKEQNINLKNEFDKDDKRVEKFSLKHQNIYFDYSKNLINDYILKSLLESAEKSSLKDKIKQMFNGAKINSTEHRAVLHTALRDLSSTPLIVDGQDIRQEVTKEKQRVKELVEKVVSGRWRGFSGKKITDIVNIGIGGSDLGPKMVVRALQPYHCTDLKVHFVSNVDADSLLQALHVVDPETTLLIIASKSFSTEETLLNSISAREWLLDHYEDEKAVANHFVAISSKLDKVKEFGIDLEHCYKMWDWVGGRYSLWSSIGMSIAFAIGYDNFEKLLAGAYSVDKHFKETEFSKNIPVIMALLASYYSCTYNSQSQALLPYDERLCYFVDYLQQADMESNGKSVNIAGETVNYQTGVVLWGGVGTNGQHAFHQLLHQGNIFIPVDFIAIATSHHNYDNHQQALLANCFAQSQALMFGQSYDMVYNELLKSGLNETQAKELAAHKVIPGNRPSTTILLDELSPYSLGALIALYEHKIFVQGVLWDINSYDQWGVELGKKLGKNILKAMNDDSSDEYQNLDDSTRQLIAKVKNK | soluble |
| MSLFLIMSGAYVGQELESEFGRIPPSFLPLGNRRLFQHQVALAPQGVKVYLSLPESYVVSEIDLQWLEQNQVTIIATPDGLSLGASLVAALNISGHSLNAPLHILYGDTLFNQLPVGDDIVSVSTAKDSYNWAVLTNDDVDWLQDANTPMSHESQRIIDGYFKFSHPRELVRCITQSEWKFIAGLNRYHKSVGLSAVNSIGWLDFGHVNTYYHSKAEFTTQRAFNELTITAKWIEKSSIKNQKIAAEAYWFDNLPMAMRGFIPQYLGSQNSEGKISYRLEYLYLTALNELFVFSRLPSQIWQKILASAVEFLSLCLEQAVEPNAPINTLDILFADKTALRLNEFCAARHITLEDQWQFAGQDISLAQILRDSQKHLPDGKPLLGVLHGDFCFSNILYDFRANKIKTIDPRGMTPDGQKTLYGDIRYDLAKLSHSILGLYDWIIAGYYHVEIADNAIELKIAEQSHHKETQQGFIELIEQTFGLTAKNLYAMQIQLFLSMLPLHADDRRRQDALFANAFRLHQILLRLDQEGHHHHHH | soluble |
| MATEPPKIVWNEGKRRFETEDHEAFIEYKMRNNGKVMDLVHTYVPSFKRGLGLASHLCVAAFEHASSHSISIIPSCSYVSDTFLPRNPSWKPLIHSEVFKSSI | soluble |
| MGSDKIHHHHHHMLVYIGNGHYCYSNSTAMFLSSIGENVSPQLVEILTGVGLGAMIEYEKNLYFSMRDPDDGINYALNILGFTAEEHQQASDLDDPFPLLKQQIKQNPVILGPLDMGELTYHPNHKNLNGSDHYVLGYQMDNENIYVQDPAGFPFVPLSLDQFKKAWMAERIPYRKGINKYWSTAKKVVTLDNNEIYERAIDYFKRTYRKFEKVDIGLIGREAICFYADQLLNAPITADTIRHTTFFLFQLSARRANDYAMYFKDRHSHLSVLKTEQAKVFGICHSMSVNKDWKGISEKLMKLADLEDNFRLELLKVGY | not soluble |
| MFNRIMVPVDGSKGAVKALEKGVGLQQLTGAELYILCVFKHHSLLEASLSMARPEQLDIPDDALKDYATEIAVQAKTRATELGVPADKVRAFVKGGRPSRTIVRFARKRECDLVVIGAQGTNGDKSLLLGSVAQRVAGSAHCPVLVV | soluble |
| RIKEKTISHWVAMQGIAMIQLNLLRTSQSQESTQATTMLGQKWYWRAKISPTPIKRMQQITISVSSKQAGPFREELIAFRYLP | not soluble |
| MHIGQFTRQYPAETAFKVQSNPWKNSPEPFLPMSTQQPKSWADVGKVAGPPRNYHHPYEVKPFEAIDEKNDVFSTMGHWNSEQKQSRQQHQQYQQNQYQARQHQYYQNPPPFYQPEQPVHYQSAQQDVFDNIGEWDNSTPIPSQISPLQLDLTLTTPLPTFQPYPSTRSYSLESPTTSVTSNEEKNSWKTIELILNQKSSRSPSITERLSPVDFGPWTSNL | not soluble |
| MAHHHHHHMRGMWATLRLFRCDRNFTALNRGNGVYNIQSVASRDCALCHSQRAVKHRSLSPDDPFGEKSASDDPVDGFYGAWSNINVDAFANAAASEEVRMAHFGPEWSRFTTIGRLSVKKMNESGSSASSGSEDCGMASQHPLGAEELHMRELRERRKVLERNYSSYDEYVAKELGLSEVDDCDNACGLQSEDPEIVADGEEAEDNDDADEDADNVPLPQFMRRSGCEQENDTGVNIYSSDQQQQQQMGGVPANTVNEGHVPQRRGTLHPPEPLAQVVFCQLGEPHGDSELPREDPLHWDTEEVILWIRRMEAAQCVLSSGSLACDSLVMEDPSMQEAFRMARIDGDYLLKNTVPATMFQVMRRWHLRRHEIVLAVLKEQQRRGIDSHEINTSIFDDPIMRGILDSGRAKLDEVVLMVTPMLVQETICQGYLYCR | not soluble |
| MIKAIFTRQKNGQLSSVTLTGHAGSGKHGFDIVCASVSTLAINFVNSLEVLADCQALVDLNDVEGGYMAITIPPHDNKEEVQLLFESFLLGMTSLAKDSSKFVNTQVI | not soluble |
| MGSDKIHHHHHHAACQGKPLPNTAMHSDAPTEWSFNFFTPKALPAVVTFAAILDVDGNDYRFNTLNSTPDLPGVIGEWNDKDRAPVGYWNHVKRPPRHIIFCWDSIIDKKVYETHLTIPKSVLEQMLMPSKYKDYRGRIAWYNRMQIGLAPEGKVAVWLQGSGSESNYRVTPSVLKTVSGNKLDICKDITRSDFSYGYDKDIIDFIKGKHYPYGNW | not soluble |
| MGSDKIHHHHHHMVVTEYELKPQNFPRFPLDWSEIFGRKAKIVVEIGFGNGEFLAELARRHPEKDFVGFEVSITSFVKAQKKFKRYNLKNVRLVKVDARFGLRELFPDNSVEKVYINFPCPWPKKRHESRRITSYDFLQTLSAVLEMDGTVEFATDEEWYAREVLDTFESSEYFVVDVFEENFKRDVETRYERKWKSQGKKTFLIVARKVKNGTVKRLMEGENTMAHSVFEGNVTWEKLKELEGKVFKDKNKIFVVKKVYRDGDYLLKVISTDEGGFQQVYYLNLSGRDGKWVLKLDEGSDPYRTPALKWSLRRIPEELTAQGSP | not soluble |
